The text below walks through data of paper PMC10178869.

Assay [1] concerns the target AqpZ nanodiscs (AqpZ, MSP1E3D1 and DOPC/POPG 4:1) (E. coli | not stated) (UniProt P60844). Description: mass photometry; 10 nM AqpZ nanodiscs in TEN buffer (300 mM NaCl); nanodisc with nanodisc.
Assay [2] has as its target T1, E. coli Aquaporin Z (AqpZ) (E. coli), P60844.
T1 chain: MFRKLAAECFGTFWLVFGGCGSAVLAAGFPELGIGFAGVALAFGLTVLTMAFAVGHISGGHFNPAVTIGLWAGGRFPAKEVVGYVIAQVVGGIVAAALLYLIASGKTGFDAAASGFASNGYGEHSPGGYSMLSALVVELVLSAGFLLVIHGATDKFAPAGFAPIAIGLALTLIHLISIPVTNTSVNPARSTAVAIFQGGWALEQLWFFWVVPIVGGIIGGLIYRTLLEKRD
Description: SDS-PAGE with or without heating; purified AqpZ nanodiscs (ND) or AqpZ in OG micelles, heated to 70 °C or unheated. The note with it: remark: other sources report otherwise.

Usually stoichiometry N stands for a count of units in the complex or per binding partner.

Molecule “AqpZ nanodiscs (AqpZ, MSP1E3D1 and DOPC/POPG 4:1) (from UniProt P60844 1-231) (complex)” registered a stoichiometry N in assay [1] of 2.

B1: E. coli Aquaporin Z (AqpZ), P60844 1-231 (natural protein)
chain: MFRKLAAECFGTFWLVFGGCGSAVLAAGFPELGIGFAGVALAFGLTVLTMAFAVGHISGGHFNPAVTIGLWAGGRFPAKEVVGYVIAQVVGGIVAAALLYLIASGKTGFDAAASGFASNGYGEHSPGGYSMLSALVVELVLSAGFLLVIHGATDKFAPAGFAPIAIGLALTLIHLISIPVTNTSVNPARSTAVAIFQGGWALEQLWFFWVVPIVGGIIGGLIYRTLLEKRD
The molecule B1 returned a stoichiometry N in assay [2] of 4.
